In the series the target is PSMA (prostate-specific membrane antigen) (human, UniProt Q04609 1-750). The experiment in a line: tissue microarray staining with silver enhancement; 1 mM MgCl2, 1 mM CaCl2; epithelial staining similar to anti-PSMA antibody; extra smooth muscle staining; miniStrep: 50 mM Tris-Cl pH 8.0, 150 mM NaCl, 10 mM MgCl2, room temperature (16 h in solution); anti-PSMA: 20 mM HEPES pH 7.4, 150 mM NaCl, 1 mM MgCl2, 1 mM CaCl2, 0.05% Tween 20, 20 C. The note with it: protein: native; chain copies: 2; label: AuNP.
Chain of PSMA (prostate-specific membrane antigen) (Q04609 whole entry): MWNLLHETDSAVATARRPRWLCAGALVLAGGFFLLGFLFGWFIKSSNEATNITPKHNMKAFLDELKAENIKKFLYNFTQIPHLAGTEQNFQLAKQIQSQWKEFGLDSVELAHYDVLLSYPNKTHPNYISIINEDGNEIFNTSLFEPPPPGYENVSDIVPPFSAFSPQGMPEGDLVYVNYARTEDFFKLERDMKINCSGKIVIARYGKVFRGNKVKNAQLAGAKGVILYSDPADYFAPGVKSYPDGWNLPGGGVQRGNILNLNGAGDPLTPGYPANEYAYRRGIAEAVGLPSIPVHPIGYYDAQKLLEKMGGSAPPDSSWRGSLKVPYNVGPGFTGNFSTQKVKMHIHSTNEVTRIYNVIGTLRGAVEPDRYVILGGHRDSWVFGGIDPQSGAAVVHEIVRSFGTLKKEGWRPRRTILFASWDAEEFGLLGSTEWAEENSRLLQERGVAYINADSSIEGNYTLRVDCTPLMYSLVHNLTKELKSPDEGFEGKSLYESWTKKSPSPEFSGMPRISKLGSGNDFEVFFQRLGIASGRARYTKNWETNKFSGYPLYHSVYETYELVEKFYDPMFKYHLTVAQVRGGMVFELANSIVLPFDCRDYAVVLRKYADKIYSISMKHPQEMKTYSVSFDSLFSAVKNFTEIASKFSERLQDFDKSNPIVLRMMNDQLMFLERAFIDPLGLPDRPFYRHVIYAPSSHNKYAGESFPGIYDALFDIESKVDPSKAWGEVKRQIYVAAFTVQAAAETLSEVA

B1: anti-PSMA aptamer on AuNP (structured_RNA)
RNA: GGGAGGACGAUGCGGAUCAGCCAUGUUUACGUCACUCCUUGUCAAUCCUCAUCGGCAGACGACUCGCCCGA
modifications: 3'-(CH2CH2O)6-(CH2)6-S-S-(CH2)6OH, conjugated to gold nanoparticle; base/sugar modifications not stated
For B1, the binding result was “binds”.

Source of the values: paper PMC2939592, “Laser ablation-based one-step generation and bio-functionalization of gold nanoparticles conjugated with aptamers”.
